Publication PMC4931317, “UtpA and UtpB chaperone nascent pre-ribosomal RNA and U3 snoRNA to initiate eukaryotic ribosome assembly” (Nature Communications, 2016)

T1: Utp4 (S. cerevisiae, UniProt Q06679 1-776)
T1 construct: Utp4, S. cerevisiae, subunit of UtpA; No tag is named for it in either strain; strains are in Supplementary Data 1; source: endogenous, S. cerevisiae YSK32, co-purified with Utp10-GFP; overexpressed (galactose promoter) in S. cerevisiae YSK122, co-purified with Utp15-mCherry
T1 sequence (looked up): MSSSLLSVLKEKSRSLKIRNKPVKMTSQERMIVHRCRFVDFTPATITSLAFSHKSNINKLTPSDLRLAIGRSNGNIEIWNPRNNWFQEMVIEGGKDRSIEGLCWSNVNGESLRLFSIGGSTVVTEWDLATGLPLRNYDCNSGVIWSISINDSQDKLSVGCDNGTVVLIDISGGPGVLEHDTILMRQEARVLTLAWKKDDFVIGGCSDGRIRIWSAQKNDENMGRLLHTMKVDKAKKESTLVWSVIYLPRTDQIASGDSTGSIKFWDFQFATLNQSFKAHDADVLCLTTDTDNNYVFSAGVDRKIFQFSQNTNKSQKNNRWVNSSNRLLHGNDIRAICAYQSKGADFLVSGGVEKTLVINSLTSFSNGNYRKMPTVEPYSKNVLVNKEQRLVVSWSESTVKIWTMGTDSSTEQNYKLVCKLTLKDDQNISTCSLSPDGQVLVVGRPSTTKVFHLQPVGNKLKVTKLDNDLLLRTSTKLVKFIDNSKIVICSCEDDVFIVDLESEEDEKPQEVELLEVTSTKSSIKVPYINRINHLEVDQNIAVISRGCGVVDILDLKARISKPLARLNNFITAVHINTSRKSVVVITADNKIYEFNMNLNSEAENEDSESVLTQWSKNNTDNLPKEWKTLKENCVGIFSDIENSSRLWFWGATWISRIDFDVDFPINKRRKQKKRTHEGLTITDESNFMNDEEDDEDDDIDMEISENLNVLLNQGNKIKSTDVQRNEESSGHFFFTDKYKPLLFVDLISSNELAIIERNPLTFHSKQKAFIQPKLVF

B1: Utp17 (Nan1) (natural protein, S. cerevisiae, UniProt Q02931 1-896, looked up)
chain: MTQSLGIEQYKLSVVSGGKPALNNLSSVTGNKNIARLSQDQRNYIIPFNNQIKVYSVETRQCVKTLKFANNSLLSGIFLQEEENNESIVKILLGDITVPQQEDAHLITVFTNNGHVIVLNYKGKLVESPKHFKISLADEKLANVFHSEGNYRILTTFKDPSQKAHNSLQSYRLYALTFDDAKKQFEVAHQAEWHNVILSNISSNGKLLAHMCKDVSTKDHEHKSISVVSLFDDSVNLSFPLGSILSSQTQSLSYNTRYVSSMAIDNMGQQLAVGFASGVISIVSLADLQIRLLKWHIDSVLSLSFSHDGSYLLSGGWEKVMSLWQLETNSQQFLPRLNGIIIDCQVLGPQGNYYSLILQMTENNSNSDYQFLLLNASDLTSKLSINGPLPVFNSTIKHIQQPISAMNTKNSNSITSLNHSKKKQSRKLIKSRRQDFTTNVEINPINKNLYFPHISAVQIFDFYKNEQVNYQYLTSGVNNSMGKVRFELNLQDPIITDLKFTKDGQWMITYEIEYPPNDLLSSKDLTHILKFWTKNDNETNWNLKTKVINPHGISVPITKILPSPRSVNNSQGCLTADNNGGLKFWSFDSHESNWCLKKISLPNFNHFSNSVSLAWSQDGSLIFHGFDDKLQILDFDTFKKFESLENTKTVSEFTLDSEIQTVKLINDTNLIVATRTTLNAINLLRGQVINSFDLYPFVNGVYKNGHMDRLITCDERTGNIALVINQQLTDLDGVPTINYKSRIIIFDSDLSTKLGNFTHHEYISWIGWNYDTDFIFLDIESTLGVVGTTVNTQLSDEVNNEGILDGLVSNTITTSASNSDIFAEQLHKLSSRGKKSDTRDKNTNDNDEDEEDIALEFINGEKKDKLVNMNSFTSMFDNIQNVQMDTFFDRVMKVLT
notes: Utp17 (Nan1), S. cerevisiae, subunit of UtpA (101 kDa); source: endogenous, S. cerevisiae YSK32, co-purified with Utp10-GFP
B2: Utp9 (natural protein, S. cerevisiae, UniProt P38882 1-575, looked up)
chain: MGSSLDLVASFSHDSTRFAFQASVAQKNNVDIYPLNETKDYVVNSSLVSHIDYETNDMKVSDVIFFGWCSDLIDTQSSNIKRKLDEDEGTGESSEQRCENFFVNGFPDGRIVVYSSNGKDIVNIIKNKKEILGADTDESDIWILDSDKVVKKLQYNNSKPLKTFTLVDGKDDEIVHFQILHQNGTLLVCIITKQMVYIVDPSKRRPSTKYSFEISDAVACEFSSDGKYLLIANNEELIAYDLKEDSKLIQSWPVQVKTLKTLDDLIMALTTDGKINNYKIGEADKVCSIVVNEDLEIIDFTPINSKQQVLISWLNVNEPNFESISLKEIETQGYITINKNEKNNADEADQKKLEEKEEEAQPEVQHEKKETETKINKKVSKSDQVEIANILSSHLEANSTEILDDLMSGSWTEPEIKKFILTKINTVDHLSKIFLTISKSITQNPWNEENLLPLWLKWLLTLKSGELNSIKDKHTKKNCKHLKSALRSSEEILPVLLGIQGRLEMLRRQAKLREDLAQLSMQEGEDDEIEVIEHSNVISNPLQDQASPVEKLEPDSIVYANGESDEFVDASEYKD
notes: Utp9, S. cerevisiae, subunit of UtpA; No tag is named for it in either strain; strains are in Supplementary Data 1; source: endogenous, S. cerevisiae YSK32, co-purified with Utp10-GFP; overexpressed (galactose promoter) in S. cerevisiae YSK122, co-purified with Utp15-mCherry

What was measured:
Utp10-3C-GFP = molecular target: T2, Utp10-3C-GFP (S. cerevisiae, UniProt P42945 1-1769); assay: pull-down; UtpA held via Utp10-GFP on anti-GFP nanobody sepharose (purified at 200 mM NaCl), then incubated 7 h at 4 °C in buffer with 400 mM NaCl; 3C elution; Coomassie-stained SDS-PAGE; conditions: partners not purified
T2 construct: Utp10, S. cerevisiae, subunit of UtpA (200 kDa); GFP is joined through a 3C protease site; it holds the protein on the beads in a1-a3 and is cleaved off by 3C on elution, so it is absent in the SEC step and in the DSS cross-linking (a6); also called Utp10-GFP; Utp10-sbp-H14-3C-GFP; source: S. cerevisiae YSK32, C-terminal tag integrated in the genome, endogenous level; captured from lysate on …

Utp4 = molecular target: T1, Utp4; assay: cross-linking; DSS (0.2 mM, H12/D12) cross-linking of SEC-purified endogenous UtpA, 25 °C, 30 min, 50 mM HEPES-NaOH pH 7.6, 200 mM NaCl, 1 mM EDTA; cross-linked peptides found by mass spectrometry (pLink); conditions: both partners purified

T2 sequence (P42945 whole entry): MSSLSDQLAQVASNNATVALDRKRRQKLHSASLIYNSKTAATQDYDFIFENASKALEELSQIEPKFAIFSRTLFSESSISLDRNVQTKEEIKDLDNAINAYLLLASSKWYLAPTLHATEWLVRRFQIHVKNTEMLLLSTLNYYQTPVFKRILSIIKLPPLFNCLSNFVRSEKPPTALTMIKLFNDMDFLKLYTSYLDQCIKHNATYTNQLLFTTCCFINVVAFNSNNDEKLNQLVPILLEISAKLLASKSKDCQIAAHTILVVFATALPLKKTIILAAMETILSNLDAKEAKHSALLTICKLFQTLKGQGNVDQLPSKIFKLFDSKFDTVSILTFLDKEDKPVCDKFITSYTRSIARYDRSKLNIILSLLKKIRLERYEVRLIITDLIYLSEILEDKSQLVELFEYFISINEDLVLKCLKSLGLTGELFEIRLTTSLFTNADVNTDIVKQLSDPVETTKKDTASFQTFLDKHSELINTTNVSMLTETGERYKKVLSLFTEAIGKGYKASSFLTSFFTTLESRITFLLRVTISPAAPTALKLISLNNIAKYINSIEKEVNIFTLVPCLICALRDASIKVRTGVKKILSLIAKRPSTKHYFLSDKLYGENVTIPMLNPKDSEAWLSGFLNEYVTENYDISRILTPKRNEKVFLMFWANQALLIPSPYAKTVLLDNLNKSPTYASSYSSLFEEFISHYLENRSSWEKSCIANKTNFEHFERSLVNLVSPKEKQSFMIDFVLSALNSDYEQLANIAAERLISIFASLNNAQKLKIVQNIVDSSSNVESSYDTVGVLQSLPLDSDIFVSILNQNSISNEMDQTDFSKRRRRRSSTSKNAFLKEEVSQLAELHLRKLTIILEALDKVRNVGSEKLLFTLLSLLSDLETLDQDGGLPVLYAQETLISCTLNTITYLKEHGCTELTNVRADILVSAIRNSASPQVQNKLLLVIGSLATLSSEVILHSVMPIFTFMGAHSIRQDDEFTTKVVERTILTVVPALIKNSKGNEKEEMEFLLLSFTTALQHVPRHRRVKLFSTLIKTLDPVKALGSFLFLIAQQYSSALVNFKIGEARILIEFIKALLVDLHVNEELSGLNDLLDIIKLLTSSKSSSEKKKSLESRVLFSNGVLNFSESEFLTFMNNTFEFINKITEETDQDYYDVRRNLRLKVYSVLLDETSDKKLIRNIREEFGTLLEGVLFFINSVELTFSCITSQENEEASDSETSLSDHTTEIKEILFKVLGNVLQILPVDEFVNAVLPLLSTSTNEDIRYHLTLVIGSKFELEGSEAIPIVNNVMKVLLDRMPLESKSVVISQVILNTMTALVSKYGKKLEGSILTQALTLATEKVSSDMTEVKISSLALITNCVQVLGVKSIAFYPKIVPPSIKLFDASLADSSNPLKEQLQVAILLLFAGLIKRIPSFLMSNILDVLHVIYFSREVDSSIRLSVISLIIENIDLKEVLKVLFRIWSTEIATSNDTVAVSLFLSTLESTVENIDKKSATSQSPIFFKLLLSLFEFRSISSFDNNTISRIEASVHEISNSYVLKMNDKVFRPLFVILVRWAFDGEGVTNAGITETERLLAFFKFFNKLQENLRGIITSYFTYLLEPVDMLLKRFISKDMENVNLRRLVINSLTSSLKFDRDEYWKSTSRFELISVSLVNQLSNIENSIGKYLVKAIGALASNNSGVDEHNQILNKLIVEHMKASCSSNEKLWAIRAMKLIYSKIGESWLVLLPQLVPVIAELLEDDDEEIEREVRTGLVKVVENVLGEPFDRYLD

| Binder | binding result (Utp10-3C-GFP) | binding result (Utp4) |
| --- | --- | --- |
| B1 | binds |  |
| B2 |  | binds |
